Article PMC7581431

Molecular target: Lip-NKD-HisC (human (identical sequence in mouse and human)) (UniProt Q969G9)
Test: aggregation and co-aggregation assay read by PAGE; purified proteins in 15 mM acetate, 150 mM NaCl, pH 5.0 mixed in different ratios; after 10 min 1 M Tris-HCl pH 8.0 added to 200 mM; after 20 min boiled 10 min in LDS sample buffer; PAGE under denaturing and reducing conditions

Sequence of Lip-NKD-HisC (human (identical sequence in mouse and human)) (Q969G9 whole entry): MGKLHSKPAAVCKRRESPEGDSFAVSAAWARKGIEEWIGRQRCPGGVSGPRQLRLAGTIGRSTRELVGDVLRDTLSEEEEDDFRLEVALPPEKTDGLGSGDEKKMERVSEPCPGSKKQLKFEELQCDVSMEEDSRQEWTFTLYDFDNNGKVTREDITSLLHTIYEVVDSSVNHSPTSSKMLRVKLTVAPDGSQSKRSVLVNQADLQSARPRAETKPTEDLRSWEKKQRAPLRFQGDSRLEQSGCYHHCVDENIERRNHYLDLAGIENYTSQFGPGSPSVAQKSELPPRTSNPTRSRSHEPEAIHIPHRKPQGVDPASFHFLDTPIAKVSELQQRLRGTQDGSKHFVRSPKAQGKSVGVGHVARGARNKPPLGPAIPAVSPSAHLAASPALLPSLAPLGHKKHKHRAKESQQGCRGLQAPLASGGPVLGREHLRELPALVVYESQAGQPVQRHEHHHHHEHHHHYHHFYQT

molecules per core (molecules per core): < 4
Binder: KHVHHHYIHHHA (domain or fragment) [MBP-Axin2-HisC]
